The supplement of paper PMC12042874
± gives the uncertainty stated by the source.

Assay: amyloid nucleation score (Sup35N fusion, yeast selection) (log enrichment); library NNK1; higher = more nucleation; inactive = no reads after selection
Procedure, shortened: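 The nucleation score equals the log enrichment of output over input reads from DiMSum, centred on the mode score of non-aggregating sequences. It was computed only for sequences with 100 or more input reads. The reads came from Illumina sequencing of plasmid inserts from psi-negative yeast expressing Sup35N fused to peptides of 20 random codons, induced with 100 μM copper sulfate for 24 hours and grown 7 days at 30°C without adenine and uracil.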

Row | Substance | amyloid nucleation score
1 | DTLVDVVFDADVV | 0.26 ± 0.28
2 | LGIARDSWGKIKQFSAVDSC | 0.159 ± 0.26
3 | GLDLMSVRWGKTMAPSSLWW | 4.63 ± 0.12
4 | SYSEFSVEGFKGHVGAYGG | -0.136 ± 0.29
5 | GAFCWRLVGEGLFVALDVCE | 0.458 ± 0.87
6 | EWGANYVGVDCSLVVRRQDV | 0.497 ± 0.93
7 | RQMLLPGMRVGKRC | 0.144 ± 0.36
8 | GLKNFWM | -1.55 ± 1.9
9 | FPGLTFILAGMLCMTCKIRG | 4.12 ± 0.13
10 | WSRTDRDDLLVYMKLPRHVY | 0.472 ± 0.37
11 | SFGVTFHWN | 2.36 ± 0.28
12 | TWSTGAMPML | -0.344 ± 0.84
13 | FGMVGTCYRMDRWDVIAVSV | 0.44 ± 0.41
14 | LKGRYDIKNY | inactive
15 | MVGRVARRVTMSVCSAVSGV | -0.237 ± 0.45
16 | RKHVVPGKIF | 0.006 ± 0.51
17 | FSIRTFVIRFTLMEHLSLEL | 0.266 ± 0.52
18 | LTRLSNCVLGGSC | -0.512 ± 0.71
19 | SIYRSVIIVMDTKVMRDVLF | 4.97 ± 0.067
20 | LAVKEL | 0.678 ± 0.54
21 | TKFIE | 1.2 ± 0.37
22 | LFFCGLGERG | inactive
23 | SVKGLYLIDVLLSYGLTFGM | -0.608 ± 0.53
24 | SYPTALLKSVLFPLVVI | -0.463 ± 0.26
25 | YIDIVSQKC | 0.922 ± 0.62
26 | NLICNLVDNQFPVWQLLRIW | 2.3 ± 0.17

Row | Substance | amyloid nucleation score
27 | LKICLIGTNCMSNV | -0.234 ± 0.78
28 | QYVMSLITVQQYRSEFSAVM | 0.263 ± 0.25
29 | DVGLFMK | -0.686 ± 0.53
30 | LYSNVRRFVWRGTWMWSRRC | 0.969 ± 0.61
31 | RCSQVGEFHFGPTDARLMGK | 0.245 ± 0.39
32 | YSLWFLRYSRNGSMRDLLRF | -0.447 ± 0.39
33 | QNKSWAG | -0.509 ± 1.7
34 | FLGWICICPGQYRSAGPTAL | -0.487 ± 0.43
35 | SLMVSRGDTCG | -0.181 ± 0.35
36 | LYFSTYVFLASTSGHLSRFD | -1.36 ± 2.1
37 | CPIWPVCWEVNHVPYLTKDI | 0.58 ± 0.79
38 | FFQRVCK | 1.65 ± 0.31
39 | LAAST | 0.311 ± 0.4
40 | DSGLLMKVSWKSDNC | -0.284 ± 0.39
41 | YGFCGLMHSNSIHYSNMQSR | 0.685 ± 0.48
42 | VAVLGNFL | inactive
43 | SWFSRMGTCYDFNSKWSCLL | 0.654 ± 0.66
44 | CSLVLAIRHATCQEVVVGSC | 0.602 ± 0.6
45 | LFLSWDSYPSLSKRTV | 0.281 ± 0.42
46 | VLTKWGIWGGQWCTVLSRGR | 0.211 ± 0.37
47 | VVWYLMVFWPCDSLSPMSRS | 0.559 ± 0.4
48 | MSFSCWFLS | 0.445 ± 0.88
49 | SMVVV | inactive
50 | VSLLKGRVAMSRG | 1.1 ± 0.38
51 | LRSSVDLTRGESYNSGKFFN | 0.435 ± 0.32
52 | HRYYSYSWGLWLSTTWEYFS | inactive

Row | Substance | amyloid nucleation score
53 | VFLIEQPMERCK | 0.199 ± 0.22
54 | SIVVLGASTWR | 0.032 ± 0.61
55 | GGHYAVQNPMRVYAYGH | -0.667 ± 1
56 | ATQRKDIA | inactive
57 | FDSVHLRRSR | 0.701 ± 0.43
58 | GCDCDQVLKYHARCMYVKDE | inactive
59 | NLWSGFLRFKFSCGRIDGIL | -0.622 ± 0.41
60 | YVWVGADDFFYRGYVFSRLV | -0.212 ± 1.4
61 | STFCTSAISMSIGSIIVGLS | 0.043 ± 0.62
62 | NQRYHYLAAQWVDSWLVGCS | -0.256 ± 0.6
63 | LLSIKSKSVFLASYCNILST | 2.71 ± 0.17
64 | HAEWGGDAKPTRYRRRNEAG | inactive
65 | QFHFMPWIDMSFSHLVHVYG | -0.741 ± 0.29
66 | FFLNQMIILSLACIGEPGQG | 5.08 ± 0.068
67 | CWDFISCSGQVVNGWSKDSS | -0.008 ± 0.42
68 | FSDMDVTQPENKDWHLEE | 1.23 ± 0.9
69 | EEPLIGLDKMPYPGTVYEIA | 0.066 ± 0.87
70 | RYCCHMSRSTYNIICCRWTN | inactive
71 | SQPSMPNSVGGDTFG | -0.658 ± 0.49
72 | VLKVCTWIKYLQSV | -0.279 ± 0.33
73 | KNFWKGVLYSIRCHNQWNVG | 5.41 ± 0.092
74 | EFTRRAYYDRNAQLFHMDQC | 2.19 ± 0.18
75 | ISSLTV | -1.33 ± 0.68
76 | VRLGMRQMCYQKNRTCQVYF | -0.173 ± 0.62
77 | TNLMSFY | -0.721 ± 1.1
78 | FFCMKGKILIINALLEIDVG | 0.079 ± 0.34

Row | Substance | amyloid nucleation score
79 | RYKIQPAIPVQEGLMGLSDP | 0.282 ± 0.43
80 | HNVQGRWFFRAHWMSYKHTI | 0.249 ± 0.62
81 | EWLDALKANTIFYWKYGSMI | 0.496 ± 0.63
82 | ILSRCVC | 0.608 ± 0.37
83 | FSVGYDNGMDNM | 0.426 ± 0.29
84 | RLRQTGVRLRSQEMFVGEVY | -0.378 ± 0.45
85 | VKLSYGWVLSGAELTEYVTM | -0.782 ± 0.54
86 | SLNFT | -0.337 ± 0.31
87 | SVYRSVRGNRCWGLKIIMPG | -0.101 ± 1.1
88 | SVFYYILNPSEAVHEVSVTS | -0.564 ± 0.48
89 | GFYVAETRKVRLCMARWYCG | 0.368 ± 0.47
90 | RSEATLYRRSSDGVKNVLQK | -0.535 ± 0.32
91 | RCGGSRDSACLANWIQFTMQ | 4.67 ± 0.064
92 | NHMSGIDKGIMRLGEWLGEW | -1 ± 0.83
93 | FSKLWSVWLRLCLKG | 0.334 ± 0.52
94 | FFGVTYREYTWS | inactive
95 | YVYWR | -1.82 ± 2.7
96 | MQIMRRIMWYDNSKVSF | -0.177 ± 0.2
97 | LSGCEGVPLNLMYLDSKMSR | -0.106 ± 0.74
98 | HDQSYSHSGSNGFRQKNEAN | 1.32 ± 0.5
99 | FTLLTAPGMATHLRTGMRSR | 0.51 ± 0.56
100 | DLYGACEMWCAENSYGRFSV | 0.107 ± 0.95
101 | HTQYSSRYGFMCSRWIVSGV | 0.684 ± 0.7
102 | VVCNCGHGIKNIC | -1.08 ± 1.6
103 | VQRCWYGR | -1.94 ± 2.7
104 | CHCCEVSWCSVWKVCIYCNI | 5 ± 0.088

Row | Substance | amyloid nucleation score
105 | YSPDLSRASFCFLWYISSS | inactive
106 | FKASIYDISQNT | -0.459 ± 0.3
107 | VMFRLTGELGDMKCGVLSDA | 1.47 ± 0.38
108 | MNFDNGDFYWFVTRIISITC | 0.99 ± 0.19
109 | NDYNWKYGFLRWCVLYEVM | 0.117 ± 0.4
110 | KMAYRVVNNLGCSIMCNICT | 7.616 ± 0.046
111 | GSWGVRVFHFFARSRP | 0.032 ± 0.79
112 | VCKWSVMNHFVVITYHYVMA | 0.671 ± 0.3
113 | NTALMWVMMIVIWSVVSFTS | -0.8 ± 1.4
114 | RYVHSAQLFVNATPHRLRLV | 0.578 ± 0.34
115 | YPYNWSPYEAASIVAVQNYQ | -1.44 ± 1.5
116 | CITANMDENLVSRIRWASEY | 0.462 ± 0.79
117 | GGLQKMVPNSNLCFLEDP | -0.713 ± 1.7
118 | AYKVSRKLKVLRFDFIEV | -0.477 ± 0.71
119 | FLNCVSLVNLLRLFRVCLMP | -0.765 ± 1.5
120 | DIVHGGYRLWTCKFGDVRYC | -0.162 ± 0.32
121 | CIFGHWAFFDCNCYILYVLY | 2.27 ± 0.23
122 | LNVIQPSWDRNFHFEVRFGH | 7.942 ± 0.061
123 | TCDRVNAIVEFWRCR | 1.46 ± 0.12
124 | AFYIRIGVHFPQ | -0.525 ± 1.1
125 | CVKSYK | 0.48 ± 0.66
126 | QGYASLGTQRTRPGYGKFGE | 0.382 ± 0.27
127 | VSHSGCKSF | -0.434 ± 0.47
128 | GNCPNT | 0.367 ± 0.75
